We go through one substance from article PMC9563052.

The experiment concerns the target fibrinogen γ-chain C-terminal residues 390-411 fused to GST. Description: ELISA; ligand (γC390-411 or γC151-411) coated, soluble αIIbβ3 (1 µg/mL) pre-incubated with chemokine (CCL5, CXCL12 or CX3CL1) for 10 min, then 1 h at room temperature in HEPES-Tyrodes buffer with 1 mM CaCl2. A general note: In an ELISA, binding on a coated surface is turned into a signal by an enzyme label.

Consider “soluble recombinant integrin αIIbβ3 (from UniProt P08514 32-1039; P05106 27-718) (complex)”, for which the fold binding to γC390-411 with CCL5 (50 µg/mL, 1 mM Ca2+) over 1 mM Mn2+ alone worked out at 4.5 fold and the fold binding to γC390-411 with CXCL12 (50 µg/mL, 1 mM Ca2+) over 1 mM Mn2+ alone stood at 3.5 fold.
